Test results as given in US12123009B2, “Methods and compositions for PPO herbicide tolerance in plants” (Monsanto Technology LLC, priority 2015, dated 2024).

Experiments:
[1] = test system: C=Cc1c2[nH]c(c1C)Cc1[nH]c(c(CCC(=O)O)c1C)Cc1[nH]c(c(C)c1CCC(=O)O)Cc1[nH]c(c(C)c1C=C)C2; assay: purified protein, by the assay type; conditions: other: apparent Km for protoporphyrinogen, pH 7.4, 37° C.
[2] = test system: Maize (Zea mays) protoporphyrinogen oxidase (PPO), wild type; assay: PPO enzyme assay (plastid extract); assay type: biochemical; conditions: apparent Km for protoporphyrinogen; pH 7.4, 30° C.
[3] = test system: H_N60 (SEQ ID NO: 3), microbial HemG protoporphyrinogen oxidase; assay: PPO enzyme assay (bacterial extract); conditions: apparent Km for protoporphyrinogen; pH 7.4, 37° C.
[4] = test system: H_N110 (SEQ ID NO: 10), microbial HemG protoporphyrinogen oxidase; assay: PPO enzyme assay (bacterial extract); conditions: apparent Km for protoporphyrinogen; pH 7.4, 37° C.
[5] = test system: Soybean (Glycine max) protoporphyrinogen oxidase (PPO), wild type; assay: PPO enzyme assay (plastid extract); assay type: biochemical; conditions: apparent Km for protoporphyrinogen; pH 7.4, 30° C.
[6] = test system: Waterhemp (Amaranthus tuberculata) protoporphyrinogen oxidase (PPO), wild type; assay: PPO enzyme assay (plastid extract); assay type: biochemical; conditions: apparent Km for protoporphyrinogen; pH 7.4, 30° C.
[7] = test system: soybean (A3555), non-transgenic or expressing H_N10 (SEQ ID NO:4); assay: R0 soybean sprayed with flumioxazin; assay type: in vivo; conditions: 210 g/ha, V3, 8 days
Procedure: In soybean, excised embryos (A3555) were transformed with the transformation constructs 1 and 11 using A. tumefaciens and standard methods known in the art. […] Regenerated R0 transgenic plantlets were grown in the greenhouse. […] The herbicide was sprayed at the V3 developmental stage with three fully developed trifoliate leaves and injury ratings were assessed 8 days after treatment. The percentage of plants that were deemed highly tolerant (15% or less injury) was noted.

transgenic maize plants = assay: R0 transgenic maize 40 g/ha S-3100 spray test; assay type: in vivo; conditions: for Average Injury / Highly Tolerant (number of plants with less than 10% injury): 40 grams/ha S-3100 at V5, 7 days after treatment, R0 plants; for injury rates when expressed in transgenic plants (crop tolerance to a PPO herbicide): R0 transgenic maize data
Excerpt: H_N60 (SEQ ID NO:3). […] These five constructs had the same promoter plus leader plus intron combination, with two different targeting peptide (TP) sequences, and the same 3′UTR sequence. Leaf samples were taken from the R0 plants and analyzed by PCR to determine the transgene copy number. Single copy plants for up to 12 unique events per construct were transplanted to pots, selfed and outcrossed to generate R1 and F1 seed, respectively, for future testing. Multi-copy plants and extra single copy plants were sprayed with 40 grams/ha 5-3100 at approximately the V5 growth stage and injury ratings were taken 7 days after treatment. The average percent (%) injury for all plants expressing each PPO enzyme and the number of plants that were deemed highly tolerant (less than 10% injury) was noted, where each plant is a unique single or multi-copy transformant.

soybean plantlets = assay: High-throughput soybean screening for herbicide tolerance (plantlets); assay type: in vivo, soybean (A3555); design: key: 0 for poor tolerance, high damage, low green coloration; 1 for some tolerance, average damage, moderate green coloration; 2 for good tolerance, low damage, high green coloration; conditions: S-3100 spray five weeks post-transformation, scored day four
Excerpt: A high-throughput plant transformation and screening method was used to evaluate large numbers of constructs in transgenic plants for herbicide tolerance in early transformation plantlet tissue. This allowed for faster and higher volume screening of construct configurations and PPO enzymes.
This permitted the side-by-side comparison of seven different HemG PPO enzymes with thirty-seven different targeting peptides using the same promoter and 3′UTR elements for gene expression. These plant transformation constructs were used to transform soybean excised embryos (germplasm A3555) using A. tumefaciens and standard methods known in the art. Four hundred explants were inoculated for each construct resulting in twelve containers per construct. A sterile PPO herbicide solution was used for herbicide tolerance testing. The herbicide solution consisted of 0.3 g of S-3100 in crop oil concentrate (5.0 mL) and 495 mL of deionized water. This was filtered through a 0.45 micron Nalgene® Rapid-Flow™ Tissue Culture Filter Unit and Surfactant-Free Cellulose Acetate membrane filter unit (VWR, Radnor, PA, USA). The resulting sterile solution was shaken before application.
At five weeks post-transformation, four of the twelve plant containers per construct were sprayed with two passes of the sterile PPO herbicide solution. The treated plantlets were then enclosed in the container and received at least 15 hours of light exposure post spray each day for four days. At the end of day four post application of S-3100, the treated plantlets were photographed and scored on a visual scale of green coloration (green coloration was representative of healthy photosynthetic plant tissue as compared to photo-bleached tissue) versus damage. The scoring values were 0 for poor tolerance, high damage, low green coloration; 1 for some tolerance, average damage, moderate green coloration; and 2 for good tolerance, low damage, high green coloration. The scoring for each construct is presented in Table 9, where n.d. indicates the analysis was not conducted.

R0 soybean plants = assay: R0 transgenic soybean herbicide tolerance at eleven weeks; assay type: in vivo; conditions: R0 plants sprayed with S-3100 at eleven weeks, rated seven days after treatment
Procedure: The plantlets in the non-sprayed containers corresponding to constructs having a score of 2 were transplanted at approximately 7 weeks post transformation and grown as R0 plants using standard methods known in the art. Plantlets corresponding to non-tolerant scores of 0 and 1 were also grown to serve as negative controls. The R0 plants were grown in a greenhouse under long-day nursery conditions (18 hr light at 80° F. then 6 hr dark at 74° F.) for approximately four weeks. At eleven weeks, the R0 plants were sprayed with two passes of the same herbicide solution (0.3 g of 5-3100) described above. Herbicide injury ratings were collected seven days after treatment.
The results of the herbicide tolerance application at eleven weeks to the R0 plants confirmed the low percent injury rating scores observed in the high-throughput screen at five weeks. Any injury rating of 30% or above was equivalent to non-transgenic soybean injury ratings. A few of the constructs stood out as providing very good tolerance to the herbicide application. […] Data are provided in Table 10, where n.d. indicates the analysis was not conducted.

[8] = H_N10 (SEQ ID NO:4), construct 11

H_N50 (SEQ ID NO: 7), microbial HemG protoporphyrinogen oxidase (Shimwellia blattae DSM 4481 = NBRC 105725)
Km [1]: 1.0 µM

C=Cc1c2[nH]c(c1C)Cc1[nH]c(c(CCC(=O)O)c1C)Cc1[nH]c(c(C)c1CCC(=O)O)Cc1[nH]c(c(C)c1C=C)C2 [protoporphyrinogen, protoporphyrinogen IX]
Km [2]: 2 µM | Km [3]: 1.1 µM | Km [4]: 0.3 µM | Km [5]: 1.8 µM | Km [6]: 0.7 µM

H_N10 (SEQ ID NO: 4), E. coli wild-type HemG protoporphyrinogen oxidase (Escherichia coli CFT073)
Km [1]: 0.7 µM

C#CCN1C(=O)COc2cc(F)c(N3C(=O)C4=C(CCCC4)C3=O)cc21 [flumioxazin]
average injury rating [7, 8]: 22% | highly tolerant plants (15% or less injury) [7, 8]: 9% | average injury rating ([7]; non-transgenic): 30% | highly tolerant plants (15% or less injury) ([7]; non-transgenic): no highly tolerant plants

H_N30 (SEQ ID NO: 5), microbial HemG protoporphyrinogen oxidase (Winslowiella toletana)
Km [1]: 1.0 µM

H_N20 (SEQ ID NO: 2), microbial HemG protoporphyrinogen oxidase (Pantoea ananatis LMG 5342)
Km [1]: 0.8 µM

B1: H_N60: microbial HemG protoporphyrinogen oxidase, SEQ ID NO:3 (protein, listed as Pantoea stewardii)
chain: MKALILYSTRDGQTRKIASSIADVIRQQQQCDVLNIKDASLPDWAQYDRVLIGASIRYGHFQPVVDKFVKQHLHELQQRTSGFFSVNLTARKPEKRSPETNAYTQKFLAHSPWQPDCCAVFAGALYYPRYRWFDRVMIQLIMRMTGGETDSTKEVEYTDWQQVSTFANDFAQLPGKS
Average Injury (transgenic maize plants): 55.8% | Highly Tolerant (number of plants with less than 10% injury) (transgenic maize plants): 19 | injury rates when expressed in transgenic plants (crop tolerance to a PPO herbicide) (transgenic maize plants): reduced injury rates

B2: H_N40: microbial HemG protoporphyrinogen oxidase, SEQ ID NO:6 (SEQ ID NO:15 lacking start methionine) (protein, listed as Pectobacterium carotovorum)
chain: MKALIVFSSRDGQTRAIASYIANTLKGTLECDVVNVLNANDIDLSQYDRVAIGASIRYGRFHPAVNQFIRKHLTSLQQLPSAFFSVNLTARKPEKRTIQTNAYTRKFLLNSPWQPDLCCVFAGALRYPRYRWFDRVMIQLIMRITGGETDSTKEIEYTDWQQVARFAQDFAQLAAKNPA
Average Injury (transgenic maize plants): 47.0% | Highly Tolerant (number of plants with less than 10% injury) (transgenic maize plants): 53 | injury rates when expressed in transgenic plants (crop tolerance to a PPO herbicide) (transgenic maize plants): reduced injury rates | coloration score (soybean plantlets; TP9): 0 | coloration score (soybean plantlets; TP11): 1 | coloration score (soybean plantlets; TP12): 1 | coloration score (soybean plantlets; TP13): 1 | coloration score (soybean plantlets; TP14): 2 | coloration score (soybean plantlets; TP15): 2 | coloration score (soybean plantlets; TP17): 1 | coloration score (soybean plantlets; TP18): 1 | coloration score (soybean plantlets; TP19): 1 | coloration score (soybean plantlets; TP21): 2 | coloration score (soybean plantlets; TP23): 1 | coloration score (soybean plantlets; TP24): 0 | coloration score (soybean plantlets; TP25): 2 | coloration score (soybean plantlets; TP26): 1 | coloration score (soybean plantlets; TP27): 1 | coloration score (soybean plantlets; TP28): 1 | coloration score (soybean plantlets; TP29): 1 | coloration score (soybean plantlets; TP30): 1 | coloration score (soybean plantlets; TP31): 1 | coloration score (soybean plantlets; TP32): 1 | coloration score (soybean plantlets; TP33): 0 | percent injury score (R0 soybean plants; TP1): 5% | percent injury score (R0 soybean plants; TP13): 15% | percent injury score (R0 soybean plants; TP14): 35% | percent injury score (R0 soybean plants; TP15): 30% | percent injury score (R0 soybean plants; TP21): 35% | percent injury score (R0 soybean plants; TP25): 15%

B3: H_N110: microbial HemG protoporphyrinogen oxidase, SEQ ID NO:10 (protein, listed as Enterobacter mori)
chain: MKILILFSTRDGQTREIAASLASELKEQAFDVDVVNLHRAENIAWEEYDGVVIGASIRYGHFHSTLNSFVKKHQQALKKLPGAFYSVNLVARKPEKRTPQTNSYTRKFLLDSPWQPDLSAVFAGALRYPRYNWYDRIMIRLIMKITGGETDTRKEVVYTDWQQVTHFAHEIVQLVRK
Average Injury (transgenic maize plants): 43.0% | Highly Tolerant (number of plants with less than 10% injury) (transgenic maize plants): did not produce any highly tolerant plants | injury rates when expressed in transgenic plants (crop tolerance to a PPO herbicide) (transgenic maize plants): reduced injury rates
